Measurements: article PMC2955292 (Chemistry & biology, 2010)

Biological target: E. coli ClpP (Escherichia coli, UniProt P0A6G7)
Conditions: Figure S1A; SDS-PAGE

Sequence of E. coli ClpP (P0A6G7 15-207): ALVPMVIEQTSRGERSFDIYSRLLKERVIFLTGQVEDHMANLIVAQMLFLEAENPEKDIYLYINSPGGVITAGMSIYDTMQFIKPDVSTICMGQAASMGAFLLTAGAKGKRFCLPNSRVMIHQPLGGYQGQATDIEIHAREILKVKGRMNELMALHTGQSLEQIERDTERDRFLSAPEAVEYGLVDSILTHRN

B1: ClpA: AAA+ family ATPase that assembles into hexameric rings and binds ClpP (protein)
chain: MLNQELELSLNMAFARAREHRHEFMTVEHLLLALLSNPSAREALEACSVDLVALRQELEAFIEQTTPVLPASEEERDTQPTLSFQRVLQRAVFHVQSSGRNEVTGANVLVAIFSEQESQAAYLLRKHEVSRLDVVNFISHGTRKDEPTQSSDPGSQPNSEEQAGGEERMENFTTNLNQLARVGGIDPLIGREKELERAIQVLCRRRKNNPLLVGESGVGKTAIAEGLAWRIVQGDVPEVMADCTIYSLDIGSLLAGTKYRGDFEKRFKALLKQLEQDTNSILFIDEIHTIIGAGAASGGQVDAANLIKPLLSSGKIRVIGSTTYQEFSNIFEKDRALARRFQKIDITEPSIEETVQIINGLKPKYEAHHDVRYTAKAVRAAVELAVKYINDRHLPDKAIDVIDEAGARARLMPVSKRKKTVNVADIESVVARIARIPEKSVSQSDRDTLKNLGDRLKMLVFGQDKAIEALTEAIKMARAGLGHEHKPVGSFLFAGPTGVGKTEVTVQLSKALGIELLRFDMSEYMERHTVSRLIGAPPGYVGFDQGGLLTDAVIKHPHAVLLLDEIEKAHPDVFNILLQVMDNGTLTDNNGRKADFRNVVLVMTTNAGVRETERKSIGLIHQDNSTDAMEEIKKIFTPEFRNRLDNIIWFDHLSTDVIHQVVDKFIVELQVQLDQKGVSLEVSQEARNWLAEKGYDRAMGARPMARVIQDNLKKPLANELLFGSLVDGGQVTVALDKEKNELTYGFQSAQKHKAEAAH
pattern of β-casein degradation products (processivity): promoted processive degradation of β-casein
